Measured values as given in patent US20100292442A1.

Experiments:
[1] = target: huIL-17RA-FLAG-polyHis (human) (UniProt Q96F46); assay: Luminex binning; bead huIgG control (f15) + IL-17RA; self pair (boxed) [D00007 Fig. 8B]
[2] = target: huIL-17RA-FLAG-polyHis (human) (UniProt Q96F46); assay: Luminex binning; bead mAb J holds IL-17RA

normalized MFI [1]: 65 | normalized MFI [2]: 42
Substance: huIgG (antibody)
